According to US6057123, “Stem cell inhibiting proteins” (British Biotech Pharmaceuticals Limited, dated 2000):

B1: LD78 Leu-Ser-Ala-Ser1>Pro Gly38>Ser Ser46>Gly (Mutant 35) (ligand)
chain: LSAPLAADTPTACCFSYTSRQIPQNFIADYFETSSQCSKPSVIFLTKRGRQVCADPSEEWVQKYVSDLELSA
B2: LD78 Lys44>Glu Arg45>Gln (Mutant 2) (ligand)
chain: SLAADTPTACCFSYTSRQIPQNFIADYFETSSQCSKPGVIFLTEQSRQVCADPSEEWVQKYVSDLELSA
B3: LD78 Ser35>Ala (Mutant 68) (ligand)
chain: SLAADTPTACCFSYTSRQIPQNFIADYFETSSQCAKPGVIFLTKRSRQVCADPSEEWVQKYVSDLELSA
B4: LD78 Phe28>Glu Arg47>Glu (Mutant 26) (ligand)
chain: SLAADTPTACCFSYTSRQIPQNFIADYEETSSQCSKPGVIFLTKRSEQVCADPSEEWVQKYVSDLELSA
B5: human LD78 (wild type, recombinant, expressed from a synthetic gene in yeast) (ligand)
chain: SLAADTPTACCFSYTSRQIPQNFIADYFETSSQCSKPGVIFLTKRSRQVCADPSEEWVQKYVSDLELSA
B6: LD78 Asp5>Ser (Mutant 37) (ligand)
chain: SLAASTPTACCFSYTSRQIPQNFIADYFETSSQCSKPGVIFLTKRSRQVCADPSEEWVQKYVSDLELSA
B7: LD78 Ser1>Ala (Mutant 54) (ligand)
chain: ALAADTPTACCFSYTSRQIPQNFIADYFETSSQCSKPGVIFLTKRSRQVCADPSEEWVQKYVSDLELSA
B8: LD78 Val39>Ala (Mutant 91) (ligand)
chain: SLAADTPTACCFSYTSRQIPQNFIADYFETSSQCSKPGAIFLTKRSRQVCADPSEEWVQKYVSDLELSA
B9: LD78 Ile24>Ala (Mutant 38) (ligand)
chain: SLAADTPTACCFSYTSRQIPQNFAADYFETSSQCSKPGVIFLTKRSRQVCADPSEEWVQKYVSDLELSA
B10: LD78 Glu66>Ser (Mutant 52) (ligand)
chain: SLAADTPTACCFSYTSRQIPQNFIADYFETSSQCSKPGVIFLTKRSRQVCADPSEEWVQKYVSDLSLSA
B11: LD78 Arg17>Ser Gln18>Glu (Mutant 30) (ligand)
chain: SLAADTPTACCFSYTSSEIPQNFIADYFETSSQCSKPGVIFLTKRSRQVCADPSEEWVQKYVSDLELSA
B12: LD78 Glu29>Arg (Mutant 28) (ligand)
chain: SLAADTPTACCFSYTSRQIPQNFIADYFRTSSQCSKPGVIFLTKRSRQVCADPSEEWVQKYVSDLELSA
B13: LD78 Arg17>Ser (Mutant 5) (ligand)
chain: SLAADTPTACCFSYTSSQIPQNFIADYFETSSQCSKPGVIFLTKRSRQVCADPSEEWVQKYVSDLELSA
B14: LD78 Phe12>Gln (Mutant 11) (ligand)
chain: SLAADTPTACCQSYTSRQIPQNFIADYFETSSQCSKPGVIFLTKRSRQVCADPSEEWVQKYVSDLELSA
B15: LD78 Ile19>Ala (Mutant 80) (ligand)
chain: SLAADTPTACCFSYTSRQAPQNFIADYFETSSQCSKPGVIFLTKRSRQVCADPSEEWVQKYVSDLELSA
B16: LD78 Lys44>Ser (Mutant 42) (ligand)
chain: SLAADTPTACCFSYTSRQIPQNFIADYFETSSQCSKPGVIFLTSRSRQVCADPSEEWVQKYVSDLELSA
B17: LD78 Asp26>Ala (Mutant 10) (ligand)
chain: SLAADTPTACCFSYTSRQIPQNFIAAYFETSSQCSKPGVIFLTKRSRQVCADPSEEWVQKYVSDLELSA
B18: LD78 Ser13>Ala (Mutant 62) (ligand)
chain: SLAADTPTACCFAYTSRQIPQNFIADYFETSSQCSKPGVIFLTKRSRQVCADPSEEWVQKYVSDLELSA
B19: LD78 Tyr27>Ala (Mutant 66) (ligand)
chain: SLAADTPTACCFSYTSRQIPQNFIADAFETSSQCSKPGVIFLTKRSRQVCADPSEEWVQKYVSDLELSA

What was measured:
[1] = biological target: LD78 receptor on the murine stem cell line FDCP cell mix (A4 cells) (murine); assay: displacement of 125I-LD78 from FDCP-mix A4 cells; % of wild-type activity based on IC50
[2] = biological target: the molecule itself; assay: self-association; sedimentation equilibrium AUC, 150 mM PBS pH7.4

Binder | Receptor Binding % WT [1] [% WT] | binding result [2]
B1 | 3 | 
B2 | 5 | 
B3 | 125 | 
B4 | 1 | 
B5 | 100 | 
B6 | 45 | 
B7 | 145 | 
B8 |  | no binding (tested: 0.5 mg/ml)
B9 | 50 | 
B10 | 162 | 
B11 | 4.2 | 
B12 | 7.7 | 
B13 | 25 | 
B14 | 34 | 
B15 |  | no binding (tested: 0.5 mg/ml)
B16 | 18 | 
B17 | 77.4 | 
B18 | 66 | 
B19 | 47 | 
